How the values were obtained:
[1] = tested on: EGFP Reporter HEK293T cells; test: Cre-loxP recombination in EGFP Reporter HEK293T cells, % EGFP+ by flow cytometry normalized to Cre groups; type: cell-based; details: Dark, Ambient, Light (5 W/m^2, 7.5 s per min, 24 h); n=5
Source text: FIG. 2A is a schematic representation of the EGFP Reporter genetic construct before and after Cre-loxP recombination; the hEF1α promoter drives mCherry expression.
FIG. 3E graphically illustrates the number of recombined cells after recombination in TamPA-Cre-nH1^+ EGFP Reporter HEK293T cells subjected (Light) or not (Ambient, Dark) to Protocol B (n=3) of FIG. 3C; reporter is untransfected EGFP Reporter HEK293T cell line (n=3), blue light stimulation started and flow cytometry measurements taken 24 h and 72 h post-transfection, respectively; percentage of recombined HEK293T cells (normalized to maximal recombination)=100%*(% of EGFP^+ cells)/(mean % of EGFP^+ cells in corresponding Cre groups). […]
To compare the two photoactivatable split-Cre systems, EGFP Reporter HEK293T cells were or were not (Reporter) transiently transfected with either PA-Cre-C, PA-Cre-M, or Cre constructs (Fig. S1A-D). […] The percentage of EGFP^+ recombined cells in each cell group was determined by flow cytometry 24 h later. […]

[2] = tested on: CD38+ Toledo Target cells; test: Activation of myc-α-CD38 Receptor Jurkat T cells upon binding to CD38+ Toledo Target cells; type: cell-based; details: Jurkat T cells stably expressing the receptor
Source text: FIG. 12D graphically illustrates representative histograms from flow cytometry showing that α-CD19-CAR-EGFP^+ Jurkat T cells both (I) bind to and (II) are activated by CD19^+ Toledo Target cells, while myc-α-CD38-Receptor^+ Jurkat T cells (III) bind to but (IV) are not activated by CD38^+ Toledo Target cells;
The TamPA-Cre system was next applied to induce CAR expression in the physiologically relevant Jurkat T cell line. […] Likewise, Jurkat T cells stably expressing myc-α-CD38 Receptor were not activated upon binding to CD38^+ Toledo Target cells, as expected (Fig. S6D).

Molecule | Cre-loxP recombination by one split-Cre half alone versus Reporter [1] | T cell activation upon binding to Target cells [2]
NLS-pMag-CreC: nucleus-localized C-terminal split-Cre protein half, SEQ ID NO: 1 (protein, Synthetic exemplary nucleic acid sequence for NLS-pMag-CreC) PKKKRKVGGHTLYAPGGYDIMGYLRQIRNRPNPQVELGPVDTSCALILCDLKQKDTPIVYASEAFLYMTGYSNAEVLGRNCRFLQSPDGMVKPKSTRKYVDSNTINTMRKAIDRNAEVQVEVVNFKKNGQRFVNFLTMIPVRDETGEYRYSMGFQCETEGTNRKWFPAEPEDVRDYLLYLQARGLAVKTIQQHLGQLNMLHRRSGLPRPSDSNAVSLVMRRIRKENVDAGERAKQALAFERTDFDQVRSLMENSDRCQDIRNLAFLGIAYNTLLRIAEIARIRVKDISRTDGGRMLIHIGRTKTLVSTAGVEKALSLGVTKLVERWISVSGVADDPNNYLFCRVRKNGVAAPSATSQLSTRALEGIFEATHRLIYGAKDDSGQRYLAWSGHSARVGAARDMARAGVSIPEIMQAGGWTNVNIVMNYIRNLDSETGAMVRLLEDGD | no significant difference | 
myc-α-CD38 Receptor: c-myc-tagged α-CD38 anchoring receptor expressed in Jurkat T cells, SEQ ID NO: 8 (protein, Synthetic exemplary nucleic acid sequence for exemplary myc-alpha-CD38-Receptor) MEFGLSWLFLVAILKGVQCSEQKLISEEDLDIQLTQSSSSFSVSLGDRVTITCKASEDIYNRLAWYQQKPGNAPRLLISGATSLETGVPSRFSGSGSGKDYTLSITSLQTEDVATYYCQQYWSTPTFGGGTKLEIKRADAAPTVSIFPPSGGGGSGGGGSGGGGSGGGGSQVQLKQSGPSLVQPSQRLSITCTVSGFSLISYGVHWVRQSPGKGLEWLGVIWRGGSTDYNAAFMSRLSITKDNSKSQVFFKMNSLQADDTAIYFCAKTLITTGYAMDYWGQGTSVTVSSAAAIEVMYPPPYLDNEKSNGTIIHVKGKHLCPSPLFPGPSKPFWVLVVVGGVLACYSLLVTVAFIIFWVRSKRS |  | not activated

Reference: patent US20230036060A1, “DUAL-CONTROLLED DRUG AND PHOTOACTIVATABLE SYSTEM FOR SPATIOTEMPORAL CONTROL OF CELL THERAPY” (THE REGENTS OF THE UNIVERSITY OF CALIFORNIA, priority 2019, published 2023)
